# Laboratory results reported in patent US20190144535A1 (AGENCY FOR SCIENCE TECHNOLOGY AND RESEARCH, published 2019).
# Assays:
# human IL-1β [1] = target: T1, human IL-1β (human, UniProt P01584 117-269); experiment: cell-based or functional assay
# mouse IL-1β [2] = target: T2, mouse IL-1β (mouse, UniProt P10749 118-269); experiment: cell-based or functional assay
# human IL-1β [3] = target: T1, human IL-1β; experiment: cell-based or functional assay; remark: listed apart in the source
# mouse IL-1β [4] = target: T2, mouse IL-1β; experiment: cell-based or functional assay; remark: listed apart in the source
# mouse IL-1β [5] = target: T2, mouse IL-1β; experiment: ProteOn bioanalyzer (BioRad); end of the range tied to P2D7 by Table 1
# Method: (§1) Matured clones (except P1E8) were tested for affinity towards mouse and human IL-1β using the ProteOn bioanalyzer (BioRad, Hercules, USA).
# human IL-1β [6] = target: T1, human IL-1β; experiment: ProteOn bioanalyzer (BioRad)
# Method: as §1
# mouse IL-1β [7] = target: T2, mouse IL-1β; experiment: ProteOn bioanalyzer (BioRad)
# Method: as §1
# mouse IL-1β [8] = target: T2, mouse IL-1β; experiment: direct ELISA, OD 460 nm against IgG 2H concentration
# mouse IL-1β [9] = target: T2, mouse IL-1β; experiment: ProteOn bioanalyzer (BioRad); end of the range tied to P1H8 by Table 1
# Method: as §1
Binder,"EC50, inhibition of human IL-1β-induced IL-6 secretion by MRC5 cells (human IL-1β [3])","EC50, inhibition of mouse IL-1β-induced IL-6 secretion by MRC5 cells (mouse IL-1β [4])",Kd (human IL-1β [6]),Kd (mouse IL-1β [7]),further results
"Fab clone 1H (Fab, V domains shown) VH: EVQLVQSGAEVKKPGASVKVSCKASGYTFTSYYMHWVRQAPGQGLEWMGLVDPEDGETIYAEKFQGRVTITADTSTDTAYMELSSLRSEDTAVYYCARVEWVAGTEGWGYYFDYWGQGTLVTVSS VL: NFMLTQPHSVSESPGKTVTIPCTASSGSIANNFVQWYQQRPGSAPTTVIYEDSQRPSGVPDRVSGSIDSSSNSASLTISGLKTEDEADYYCQSYDSANDRVTFGGGTKLIVLG",–,–,–,–,"IC50 (concentration inhibiting 50% of IL-1β activity), HEK-Blue IL-1β cells, SEAP reporter (human IL-1β [1]): 1.31 nM"
"IgG1 1H (antibody, V domains shown) VH: EVQLVQSGAEVKKPGASVKVSCKASGYTFTSYYMHWVRQAPGQGLEWMGLVDPEDGETIYAEKFQGRVTITADTSTDTAYMELSSLRSEDTAVYYCARVEWVAGTEGWGYYFDYWGQGTLVTVSS VL: NFMLTQPHSVSESPGKTVTIPCTASSGSIANNFVQWYQQRPGSAPTTVIYEDSQRPSGVPDRVSGSIDSSSNSASLTISGLKTEDEADYYCQSYDSANDRVTFGGGTKLIVLG",–,–,–,–,"inhibition potency (EC50), human IL-1β induced IL-6 production in MRC5 cells (human IL-1β [1]): 3.92 nM; potency (EC50), neutralization in HEK-Blue cells stimulated with 4 pM human IL-1β (human IL-1β [1]): 2.6 nM; potency (EC50), neutralization in HEK-Blue cells stimulated with mouse IL-1β (mouse IL-1β [2]): 11.5 nM"
"Fab clone 2H (Fab, V domains shown) VH: QVQLQQWGAGLLKPSETLSLTCAVYGGSFSDYYWSWIRQPPGKGLEWIGEIDHSGSTNYNPSLKSRVTISVDTSRNQFSLSLSSVTAADTAVYYCARASPSSGWTLDYWGQGTLVTVSS VL: QSVLTQPPSVSVSPGQTASITCSGDKLGDKFAFWYQQKPGQSPVLVIYLDNKRPSGIPERFSGSNSGNTATLTISGTQALDEADYYCQAWDSNIEVFGGGTKLTVLG",–,–,–,–,"IC50 (concentration inhibiting 50% of IL-1β activity), HEK-Blue IL-1β cells, SEAP reporter (human IL-1β [1]): 0.21 nM"
"P1E8 (antibody, V domains shown) VH: QVQLQQWGAGLLKPSETLSLTCAVYGGSFSDYYWSWIRQPPGKGLEWIGEIDHSGSTNYNPSLKSRVTISVDTSKNQFSLKLSSVTAADTAVYYCARASPSSGWTLDYWGQGTLVTVSS VL: QSVLTQPPSVSVSPGQTASITCSGDKLGDKFAFWYQQKPGQSPVLVIYLDNKRPSGIPERFSGSNSGNTATLTISGTQALDEADYYCEAWDAAAEVFGGGTKLTVLG",0.0453 nM,0.479 nM,–,–,–
"P2D7 (antibody, V domains shown, claim 45 pairs 17 with 14); also called matured Ig P2D7) VH: QVQLQQWGAGLLKPSETLSLTCAVYGGSFSDYYWSWIRQPPGKGLEWIGEIDHSGSTNYNPSLKSRVTISVDTSRNQFSLSLSSVTAADTAVYYCARASPSSGWTLDYWGQGTLVTVSS VL: QSVLTQPPSVSVSPGQTASITCSGDKLGDKFAFWYQQKPGQSPVLVIYLDNKRPSGIPERFSGSNSGNTATLTISGTQALDEADYYCYAWADTYEVFGGGTK",0.00653 nM,0.158 nM,0.0031 nM,0.0109 nM,fold higher affinity compared to IgG 2H (mouse IL-1β [5]): 3 to 13 fold
"P2D8 (antibody, V domains shown, also called matured Ig P2D8) VH: QVQLQQWGAGLLKPSETLSLTCAVYGGSFSDYYWSWIRQPPGKGLEWIGEIDHSGSTNYNPSLKSRVTISVDTSRNQFSLSLSSVTAADTAVYYCARASPSSGWTLDYWGQGTLVTVSS VL: QSVLTQPPSVSVSPGQTASITCSGDKLGDKFAFWYQQKPGQSPVLVIYLDNKRPSGIPERFSGSNSGNTATLTISGTQALDEADYYCEAWADTYEVFGGGTKLTVLG",0.011 nM,0.197 nM,0.00457 nM,0.0166 nM,–
"IgG1 2H (antibody, V domains shown, also called IgG 2H; IgG clone 2H) VH: QVQLQQWGAGLLKPSETLSLTCAVYGGSFSDYYWSWIRQPPGKGLEWIGEIDHSGSTNYNPSLKSRVTISVDTSRNQFSLSLSSVTAADTAVYYCARASPSSGWTLDYWGQGTLVTVSS VL: QSVLTQPPSVSVSPGQTASITCSGDKLGDKFAFWYQQKPGQSPVLVIYLDNKRPSGIPERFSGSNSGNTATLTISGTQALDEADYYCQAWDSNIEVFGGGTKLTVLG",0.148 nM,1.25 nM,0.0783 nM,0.142 nM,"EC50 (read off the curve) (mouse IL-1β [8]): ~0.3 nM; inhibition potency (EC50), human IL-1β induced IL-6 production in MRC5 cells (human IL-1β [1]): 0.35 nM; potency (EC50), neutralization in HEK-Blue cells stimulated with 4 pM human IL-1β (human IL-1β [1]): 0.17 nM; potency (EC50), neutralization in HEK-Blue cells stimulated with mouse IL-1β (mouse IL-1β [2]): 1.5 nM"
"P1H8 (antibody, V domains shown, also called matured Ig P1H8) VH: QVQLQQWGAGLLKPSETLSLTCAVYGGSFSDYYWSWIRQPPGKGLEWIGEIDHSGSTNYNPSLKSRVTISVDTSRNQFSLSLSSVTAADTAVYYCARASPSSGWTLDYWGQGTLVTVSS VL: QSVLTQPPSVSVSPGQTASITCSGDKLGDKFAFWYQQKPGQSPVLVIYLDNKRPSGIPERFSGSNSGNTATLTISGTQALDEADYYCQAWADSFEVFGGGTKLTVLG",0.0215 nM,0.623 nM,0.0101 nM,0.0489 nM,fold higher affinity compared to IgG 2H (mouse IL-1β [9]): 3 to 13 fold
"P1D9 (antibody, V domains shown, also called matured Ig P1D9) VH: QVQLQQWGAGLLKPSETLSLTCAVYGGSFSDYYWSWIRQPPGKGLEWIGEIDHSGSTNYNPSLKSRVTISVDTSRNQFSLSLSSVTAADTAVYYCARASPSSGWTLDYWGQGTLVTVSS VL: QSVLTQPPSVSVSPGQTASITCSGDKLGDKFAFWYQQKPGQSPVLVIYLDNKRPSGIPERFSGSNSGNTATLTISGTQALDEADYYCYAWDNAYEVFGGGTKLTVLG",0.0207 nM,0.241 nM,0.00673 nM,0.0236 nM,–
